Data published in US20230312739A1 (BIOTHEUS, published 2023).

Experiments:
[1] = target: T1, CD73 on cynomolgus macaques CD3+CD8+ T cells (cynomolgus macaques, UniProt A0A2K5V5U7 27-549); experiment: flow cytometry on cynomolgus macaque PBMC, CD3+CD8+ T cells, donor 1300M
T1 construct: whole, on cells; also called cynomolgus macaques T cells; cynomolgus macaques PBMC
T1 sequence: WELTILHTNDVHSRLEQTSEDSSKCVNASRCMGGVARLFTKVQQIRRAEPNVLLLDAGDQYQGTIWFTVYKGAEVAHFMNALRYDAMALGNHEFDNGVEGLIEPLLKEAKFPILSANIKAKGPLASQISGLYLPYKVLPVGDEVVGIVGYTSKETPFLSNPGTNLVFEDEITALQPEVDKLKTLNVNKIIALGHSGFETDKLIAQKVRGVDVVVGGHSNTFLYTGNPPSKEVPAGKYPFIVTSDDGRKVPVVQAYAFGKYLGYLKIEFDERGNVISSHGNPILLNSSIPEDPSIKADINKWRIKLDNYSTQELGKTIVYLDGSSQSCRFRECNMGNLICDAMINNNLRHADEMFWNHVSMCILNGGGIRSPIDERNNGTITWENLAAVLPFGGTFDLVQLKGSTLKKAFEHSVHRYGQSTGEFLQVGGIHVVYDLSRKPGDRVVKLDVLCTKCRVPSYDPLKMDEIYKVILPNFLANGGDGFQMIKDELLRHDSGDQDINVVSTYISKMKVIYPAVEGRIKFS
Procedure: Monkey blood samples from two donors (1132F and 1300M) were obtained from Medicilon. Peripheral blood mononuclear cells (PBMCs) were isolated using a Ficoll density gradient centrifugation system. The PBMCs were incubated with the antibody to be tested, then the antibodies bound on the cells were stained with fluorochrome-labeled secondary antibodies (DyLight488 goat anti-mouse IgG, Abcam Cat. No. ab97015; DyLight488 goat anti-human IgG, Abcam Cat. No. ab97003), and the fluorochrome-labeled antibodies against CD3+ and CD8+ were used to recognize T cells. Together with the unstained control samples and the fluorescence compensation control samples, all the samples were run on a flow cytometer to detect the binding of the antibodies to cynomolgus macaques T cells.

[2] = target: T2, human CD73 on the cell surface (tumor cells endogenously expressing human CD73; CHOS-human CD73) (human, UniProt P21589 27-549); experiment: full-field cell scanning analyzer (Celigo), percent fluorescent cells, MDA-MB-231 cells endogenously expressing human CD73
T2 construct: The endogenous CD73 of the human tumor lines (MDA-MB-231, Calu6, SK-ME-S, H2030, SKLU1, BT549, A375, HCC44) is treated as the same protein
T2 sequence: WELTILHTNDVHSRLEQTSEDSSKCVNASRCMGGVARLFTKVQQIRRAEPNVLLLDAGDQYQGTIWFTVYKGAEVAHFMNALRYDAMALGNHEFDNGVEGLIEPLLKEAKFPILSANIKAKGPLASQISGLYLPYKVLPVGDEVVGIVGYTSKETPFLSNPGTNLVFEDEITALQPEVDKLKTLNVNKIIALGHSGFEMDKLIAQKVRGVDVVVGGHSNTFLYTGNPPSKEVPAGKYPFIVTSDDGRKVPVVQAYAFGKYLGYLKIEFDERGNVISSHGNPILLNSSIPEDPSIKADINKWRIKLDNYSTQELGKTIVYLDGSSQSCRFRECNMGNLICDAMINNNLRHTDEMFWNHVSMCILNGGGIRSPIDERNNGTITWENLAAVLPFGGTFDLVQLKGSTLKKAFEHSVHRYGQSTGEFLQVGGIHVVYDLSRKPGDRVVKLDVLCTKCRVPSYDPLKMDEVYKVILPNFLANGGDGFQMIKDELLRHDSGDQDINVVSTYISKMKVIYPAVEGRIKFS
Procedure: (§1) Experimental method: 10,000 cells were plated on a flat-bottom 96-well plate with 100 μL DMEM+10% FBS/well, cultured overnight so that the cells adhered to the well, and the supernatant was discarded on the next day. Serial 3-fold dilutions of antibody for 8 points were performed by diluting ⅓ of the total volume (100 μL) in 200 μL DMEM. 100 μL of the diluted antibody was added to each well of the cell plate (the supernatants of fused clones or subclones were used for screening), 100 μL of DMEM was added to the corresponding negative control well, and incubation was performed at room temperature for 1 hour. After the supernatant was discarded, 100 μL of secondary antibody (DyLight488 goat anti-mouse IgG (Abcam, Cat. No. ab97015)) was added to each well at a concentration of 5 μg/mL (diluted in DMEM), and incubation was performed for 0.5 hours at room temperature. After staining, the supernatant was discarded, followed by washing once with PBS+2% FBS, then 100 μL of PBS+2% FBS was added to each well, and then reading was performed on analyzer. A full-field cell scanning analyzer (Nexcelom Company, model Celigo® Image Cytometer) was used to measure the reading of the experimental plate. […] The binding effect of the anti-CD73 antibody to the CD73-expressing cell line was determined according to the percentage. […]

[3] = target: T2, human CD73 on the cell surface (tumor …); experiment: full-field cell scanning analyzer (Celigo), percent fluorescent cells, Calu6 cells endogenously expressing human CD73
Procedure: as §1

[4] = target: T2, human CD73 on the cell surface (tumor …); experiment: cell binding on adherent CHOS-human CD73 cells, DyLight488 goat anti-mouse IgG, full-field cell scanning analyzer (Celigo), % fluorescent cells
Procedure: as §1

B1: murine antibody 13D12 (antibody, V domains shown)
VH: DVKLQESGPAMVKPSQSLSLTCTVTGYSITSGYDWHWIRLFPGNKLEWMGYISYSGYTDYSPSLKSRISITHDTSKNHFFLKLHSVTTEDTATYYCTRGDHSYAMDYWGQGTSVTVS
VL: DIVMTQSHKFMSTSVGDRVSITCKASQAVGTAVAWYQQKPGQSPKLLIYWASSRHTGVPDRFTGSRSGTDFTLTISSVQSEDLADYFCQQYSSYPLTFGGGTNLEIK
notes: Mouse monoclonal antibody purified from hybridoma supernatant; also called mouse monoclonal antibody 13D12
MFI FC (fold change of mean fluorescence intensity) [1]: 2.8 fold
EC50 [2]: 0.9 µg/mL
EC50 [3]: 0.47 µg/mL
EC50 (read off the curve) [4]: ~0.06 µg/mL
